# From US6440461B1, “Poly(methylidene malonate) microspheres, preparation method and pharmaceutical compositions containing them” (Virsol, priority 1998, dated 2002)
# Tested on: C3H mice
# Test: Oral tolerance induction: survival of mice after sensitisation to ovalbumin by subcutaneous injection
# Assay type: in vivo
# Conditions: 100 micrograms ovalbumin per mouse per day over 5 consecutive days, last dose 7 days before s.c. sensitisation with free ovalbumin (100 micrograms per mouse) on D0 and D14
# Procedure: This preparation is administered via the oral route to C3H mice at the dose of 100 micrograms of encapsulated ovalbumin (per mouse per day) over 5 consecutive days. The last oral administration took place 7 days before the sensitisation of the animals to ovalbumin which is carried out by subcutaneous injection of free ovalbumin (100 micrograms per mouse) on days DO and D14. 90% of the mice survive the second injection while less than 30% of the mice administered with the microspheres without ovalbumin or with the same dose of non-encapsulated ovalbumin survive.
molecule,measurement,value
"ovalbumin (protein, UniProt P01012 2-386, looked up) Ovalbumin: GSIGAASMEFCFDVFKELKVHHANENIFYCPIAIMSALAMVYLGAKDSTRTQINKVVRFDKLPGFGDSIEAQCGTSVNVHSSLRDILNQITKPNDVYSFSLASRLYAEERYPILPEYLQCVKELYRGGLEPINFQTAADQARELINSWVESQTNGIIRNVLQPSSVDSQTAMVLVNAIVFKGLWEKAFKDEDTQAMPFRVTEQESKPVQMMYQIGLFRVASMASEKMKILELPFASGTMSMLVLLPDEVSGLEQLESIINFEKLTEWTSSNVMEERKIKVYLPRMKMEEKYNLTSVLMAMGITDVFSSSANLSGISSAESLKISQAVHAAHAEINEAGREVVGSAEAGVDAASVSEEFRADHPFLFCIKHIATNAVLFFGRCVSP",mice surviving the second injection of free ovalbumin,less than 30%
